According to article PMC5538822, “RNA-dependent stabilization of SUV39H1 at constitutive heterochromatin”:
Changes are numbered by the printed parent chain.

Tests used:
Settings in all cases: protein: recombinant; tags: MBP; label: 32P
MBP-SUV39H1 42-106 R84A [1] = molecular target: T1, MBP-SUV39H1 42-106 R84A (Homo sapiens, UniProt O43463 42-106, R84A); test: EMSA; 20 mM Tris-HCl pH 7.4, 50 mM NaCl, 10% glycerol, ~4 U RNase inhibitor, room temperature 10 min; native gel 0.5X TBE at 25 C; filter binding on nitrocellulose in the same buffer
T1 sequence: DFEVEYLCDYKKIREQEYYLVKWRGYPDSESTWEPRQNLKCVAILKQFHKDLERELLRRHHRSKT

MBP-SUV39H1 42-106 R55A [2] = molecular target: T2, MBP-SUV39H1 42-106 R55A (Homo sapiens, UniProt O43463 42-106, R55A); test: as above
T2 sequence: T1 sequence with R14A, A43R

MBP-SUV39H1 42-106 R84A [3] = molecular target: T1, MBP-SUV39H1 42-106 R84A; test: filter binding; 20 mM Tris-HCl pH 7.4, 50 mM NaCl, 10% glycerol, ~4 U RNase inhibitor, room temperature 10 min; native gel 0.5X TBE at 25 C; filter binding on nitrocellulose in the same buffer
MBP-SUV39H1 42-106 R55A [4] = molecular target: T2, MBP-SUV39H1 42-106 R55A; test: as above

Measured: binding signal

B1: sense 19mer ssRNA (ssRNA)
RNA: AUAUGGGAACCACUGAUCC
> 40 fold lower affinity than WT: all assays above
